Data from US20200308290A1 (AbbVie / Abbott, published 2020).
Where two headings read alike, the source gives them in different places. Values belong to the binder of their own block, whether it stands above or below them.

Key:
[1] = target: T1, human CD25 (recombinant soluble) (human, UniProt P01589 22-240); test: competition ELISA on plate-coated CD25: competitor antibody titrated against biotinylated daclizumab, OD415
T1 construct: extracellular domain; bought protein; also called IL2-Rα; recombinant human IL2-Rα
T1 sequence (looked up): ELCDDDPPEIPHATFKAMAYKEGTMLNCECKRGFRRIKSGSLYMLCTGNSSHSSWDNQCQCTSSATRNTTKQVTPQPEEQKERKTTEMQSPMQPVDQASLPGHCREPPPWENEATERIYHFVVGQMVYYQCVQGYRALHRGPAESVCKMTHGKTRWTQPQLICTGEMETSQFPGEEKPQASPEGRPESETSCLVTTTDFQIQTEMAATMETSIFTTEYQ

[2] = target: T1, human CD25 (recombinant soluble); test: as above; remark: listed apart in the source
CD25 (recombinant) [3] = target: T2, CD25 (recombinant) (human, UniProt P01589 22-213, limits assumed); test: ELISA, relative to wild type
T2 construct: bought protein; also called IL2-R alpha; IL2-Rα
T2 sequence (looked up): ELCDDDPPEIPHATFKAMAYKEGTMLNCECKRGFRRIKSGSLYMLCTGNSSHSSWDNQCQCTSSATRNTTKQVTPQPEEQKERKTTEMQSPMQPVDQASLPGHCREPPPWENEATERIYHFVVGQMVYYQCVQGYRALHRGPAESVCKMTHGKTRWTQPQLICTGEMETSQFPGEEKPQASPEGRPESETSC

CD25 (recombinant) [4] = target: T2, CD25 (recombinant); test: SPR (BIAcore)
[5] = target: T3, recombinant human CD25 (IL2-Rα) (human, UniProt P01589 22-213, limits assumed); test: SPR (BIAcore), antibody captured by anti-human Fc, soluble human CD25 as analyte, n=3
T3 construct: Bought protein; also called recombinant human IL2-Rα; recombinant soluble human CD25
T3 sequence (looked up): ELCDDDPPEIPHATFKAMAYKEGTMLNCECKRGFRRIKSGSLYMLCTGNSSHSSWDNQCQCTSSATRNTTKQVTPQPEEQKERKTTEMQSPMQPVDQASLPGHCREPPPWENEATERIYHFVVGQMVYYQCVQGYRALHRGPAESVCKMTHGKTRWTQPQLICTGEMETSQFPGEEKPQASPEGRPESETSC
Method: (§1) For this capture approach, 30 μg/ml of GAHFc was immobilized to achieve a high response unit (20,000 RU) on each flow cell on the Research-grade CMS sensor chip using the BIAcore amine coupling reagents (N-ethyl-N′-dimethylamino-propylcarbodiimide, EDC; N-hydroxysuccinimide, NHS; and ethanolamine HCl, pH 8.5). […] A 3 min association phase of CD25 was followed by a 15 min injection of HBS-P running buffer (10 mM HEPES, 150 mM sodium chloride, 0.005% P-20 surfactant, pH 7.4) to monitor dissociation for each binding cycle, with a different CD25 concentration per cycle. The surface was regenerated with 20 mM HCl at 100 μl/min flow rate at the end of each cycle. […] Double referencing was applied in each analysis to eliminate background responses from reference surface and buffer only control (0 nM). […] Each set of experiments was performed three times to assess the standard deviation of the data.
(§2) Modified antibody proteins were tested for binding affinity using a surface plasmon resonance assay format in a BIAcore device. […] Recombinant soluble human CD25 was flowed over the sensor chip and changes in mass were detected.

[6] = target: T3, recombinant human CD25 (IL2-Rα); test: as above; remark: listed apart in the source
Method: as §1, §2

cynomolgous CD25-HA = target: T4, cynomolgous CD25-HA (cynomolgous monkey, UniProt H6WS54 22-240); test: SPR (BIAcore), antibody captured by anti-human Fc, cynomolgous CD25-HA as analyte, n=3
T4 construct: also called cynomolgous monkey CD25; cmCD25; not shown: exact C-terminal limit of the PDL BioPharma construct
T4 sequence: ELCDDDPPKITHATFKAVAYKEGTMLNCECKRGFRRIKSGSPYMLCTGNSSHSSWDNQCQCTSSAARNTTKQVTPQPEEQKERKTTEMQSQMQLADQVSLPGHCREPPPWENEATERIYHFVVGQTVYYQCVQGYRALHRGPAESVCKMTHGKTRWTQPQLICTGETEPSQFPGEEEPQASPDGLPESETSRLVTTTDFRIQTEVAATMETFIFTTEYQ

- EC50 [1]: 0.49 µg/mL
- EC50 [2]: 0.71 µg/mL
B1: NuhuTac (antibody, V domains shown)
VH: EVQLVQSGAEVKKPGASVKVSCKASGYTFTSYRMHWVRQAPGQGLEWIGYINPSTGYTEYNQKFKDKATMTADKSISTAYMELSSLRSEDTAVYYCARGGGVFDYWGQGTLVTVSS
VL: EIVLTQSPATLSLSPGERATLTCSASSSISYMHWFQQKPGQAPRLLIYTTSNLASGIPARFSGSGSGTDYTLTISSLEPEDFAVYYCHQRSTYPLTFGQGTKVEIK
notes: rehumanization of mouse anti-Tac on frameworks R3.5H5G (VH) and ka3d1 (VL); also called rehumanized anti-Tac; rehumanized antibody

- ELISA (wt = 1) (CD25 (recombinant) [3]): 1.5 fold (wt = 1)
- Kd (CD25 (recombinant) [4]): 0.388 nM
B2: daclizumab variant S79 (antibody, IgG1, name in Kabat numbering, V domains shown)
VH: QVQLVQSGAEVKKPGSSVKVSCKASGYTFTSYRMHWVRQAPGQGLEWIGYINPSTGYTEYNQKFKDKATITADKSTNTAYMELSSLRSEDTAVYYCARGGGVFDYWGQGTLVTVSS
VL: DIQMTQSPSTLSASVGDRVTITCSASSSISYMHWYQQKPGKAPKLLIYTTSNLASGVPARFSGSGSGTEFTLTISSLQPDDFATYYCHQRSTYPLTFGQGTKVEVK
notes: IgG1; Kabat positions; also called E73K

- Kd [5]: 0.357 nM
- Kd [6]: 0.375 nM
- Kd (cynomolgous CD25-HA): 0.371 nM
B3: DAC I48M (antibody, IgG1, name in Kabat numbering, V domains shown)
VH: QVQLVQSGAEVKKPGSSVKVSCKASGYTFTSYRMHWVRQAPGQGLEWMGYINPSTGYTEYNQKFKDKATITADESTNTAYMELSSLRSEDTAVYYCARGGGVFDYWGQGTLVTVSS
VL: DIQMTQSPSTLSASVGDRVTITCSASSSISYMHWYQQKPGKAPKLLIYTTSNLASGVPARFSGSGSGTEFTLTISSLQPDDFATYYCHQRSTYPLTFGQGTKVEVK
notes: E.HAT variant, IgG1/kappa
